Measured values from patent US20210388087A1 (Chugai, published 2021).
Where a chain is given by its changes, count along the chain named.

B1: CE115HA000/GLS3000 H34F (antibody, IgG1, name in Kabat numbering, V domains shown)
VH: QVQLVESGGGVVQPGRSLRLSCAASGFTFSNAWMHWVRQAPGKGLEWVAQIKAKSNNYATYYAESVKGRFTISRDDSKNSLYLQMNSLKTEDTAVYYCRYVHYGAYYGVDAWGQGTTVTVSS
VL: DIVMTQSPLSLPVTPGEPASISCRSSQSLVHSNRNTYLFWYQQKPGQAPRLLIYKVSNRFSGVPDRFSGSGSGTDFTLKISRVEAEDVGVYYCGQGTQVPYTFGQGTKLEIK
notes: one-arm IgG1
B2: CE115HA000/GLS3000 H34G (antibody, IgG1, name in Kabat numbering, V domains shown)
VH: B1 VH
VL: B1 VL with F39G
notes: one-arm IgG1
B3: CE115HA000/GLS3000 H34I (antibody, IgG1, name in Kabat numbering, V domains shown)
VH: B1 VH
VL: B1 VL with F39I
notes: one-arm IgG1
B4: CE115HA000/GLS3000 H34K (antibody, IgG1, name in Kabat numbering, V domains shown)
VH: B1 VH
VL: B1 VL with F39K
notes: one-arm IgG1
B5: CE115HA000/GLS3000 H34L (antibody, IgG1, name in Kabat numbering, V domains shown)
VH: B1 VH
VL: B1 VL with F39L
notes: one-arm IgG1
B6: CE115HA000/GLS3000 H34M (antibody, IgG1, name in Kabat numbering, V domains shown)
VH: B1 VH
VL: B1 VL with F39M
notes: one-arm IgG1
B7: CE115HA000/GLS3000 H34N (antibody, IgG1, name in Kabat numbering, V domains shown)
VH: B1 VH
VL: B1 VL with F39N
notes: one-arm IgG1
B8: CE115HA000/GLS3000 H34P (antibody, IgG1, name in Kabat numbering, V domains shown)
VH: B1 VH
VL: B1 VL with F39P
notes: one-arm IgG1
B9: CE115HA000/GLS3000 H34Q (antibody, IgG1, name in Kabat numbering, V domains shown)
VH: B1 VH
VL: B1 VL with F39Q
notes: one-arm IgG1
B10: CE115HA000/GLS3000 H34S (antibody, IgG1, name in Kabat numbering, V domains shown)
VH: B1 VH
VL: B1 VL with F39S
notes: one-arm IgG1
B11: CE115HA000/GLS3000 H34T (antibody, IgG1, name in Kabat numbering, V domains shown)
VH: B1 VH
VL: B1 VL with F39T
notes: one-arm IgG1
B12: CE115HA000/GLS3000 H34V (antibody, IgG1, name in Kabat numbering, V domains shown)
VH: B1 VH
VL: B1 VL with F39V
notes: one-arm IgG1
B13: CE115HA000/GLS3000 H34W (antibody, IgG1, name in Kabat numbering, V domains shown)
VH: B1 VH
VL: B1 VL with F39W
notes: one-arm IgG1
B14: CE115HA000/GLS3000 H34Y (antibody, IgG1, name in Kabat numbering, V domains shown)
VH: B1 VH
VL: B1 VL with F39Y
notes: one-arm IgG1
B15: CE115HA000/GLS3000 K50A (antibody, IgG1, name in Kabat numbering, V domains shown)
VH: B1 VH
VL: B1 VL with F39H, K55A
notes: one-arm IgG1
B16: CE115HA000/GLS3000 K50D (antibody, IgG1, name in Kabat numbering, V domains shown)
VH: B1 VH
VL: B1 VL with F39H, K55D
notes: one-arm IgG1
B17: CE115HA000/GLS3000 K50E (antibody, IgG1, name in Kabat numbering, V domains shown)
VH: B1 VH
VL: B1 VL with F39H, K55E
notes: one-arm IgG1
B18: CE115HA000/GLS3000 K50G (antibody, IgG1, name in Kabat numbering, V domains shown)
VH: B1 VH
VL: B1 VL with F39H, K55G
notes: one-arm IgG1
B19: CE115HA000/GLS3000 K50L (antibody, IgG1, name in Kabat numbering, V domains shown)
VH: B1 VH
VL: B1 VL with F39H, K55L
notes: one-arm IgG1
B20: CE115HA000/GLS3000 K50P (antibody, IgG1, name in Kabat numbering, V domains shown)
VH: B1 VH
VL: B1 VL with F39H, K55P
notes: one-arm IgG1
B21: CE115HA000/GLS3000 K50Q (antibody, IgG1, name in Kabat numbering, V domains shown)
VH: B1 VH
VL: B1 VL with F39H, K55Q
notes: one-arm IgG1
B22: CE115HA000/GLS3000 K50R (antibody, IgG1, name in Kabat numbering, V domains shown)
VH: B1 VH
VL: B1 VL with F39H, K55R
notes: one-arm IgG1
B23: CE115HA000/GLS3000 K50S (antibody, IgG1, name in Kabat numbering, V domains shown)
VH: B1 VH
VL: B1 VL with F39H, K55S
notes: one-arm IgG1
B24: CE115HA000/GLS3000 K50T (antibody, IgG1, name in Kabat numbering, V domains shown)
VH: B1 VH
VL: B1 VL with F39H, K55T
notes: one-arm IgG1
B25: CE115HA000/GLS3000 K50Y (antibody, IgG1, name in Kabat numbering, V domains shown)
VH: B1 VH
VL: B1 VL with F39H, K55Y
notes: one-arm IgG1
B26: CE115HA000/GLS3000 K74T (antibody, IgG1, name in Kabat numbering, V domains shown)
VH: B1 VH
VL: B1 VL with F39H, K79T
notes: one-arm IgG1
B27: CE115HA000/GLS3000 K107E (antibody, IgG1, name in Kabat numbering, V domains shown)
VH: B1 VH
VL: B1 VL with F39H, K112E
notes: one-arm IgG1
B28: CE115HA000/GLS3000 L27bD (antibody, IgG1, name in Kabat numbering, V domains shown)
VH: B1 VH
VL: B1 VL with L29D, F39H
notes: one-arm IgG1
B29: CE115HA000/GLS3000 L27bE (antibody, IgG1, name in Kabat numbering, V domains shown)
VH: B1 VH
VL: B1 VL with L29E, F39H
notes: one-arm IgG1
B30: CE115HA000/GLS3000 L27bF (antibody, IgG1, name in Kabat numbering, V domains shown)
VH: B1 VH
VL: B1 VL with L29F, F39H
notes: one-arm IgG1
B31: CE115HA000/GLS3000 L27bI (antibody, IgG1, name in Kabat numbering, V domains shown)
VH: B1 VH
VL: B1 VL with L29I, F39H
notes: one-arm IgG1
B32: CE115HA000/GLS3000 L27bM (antibody, IgG1, name in Kabat numbering, V domains shown)
VH: B1 VH
VL: B1 VL with L29M, F39H
notes: one-arm IgG1
B33: CE115HA000/GLS3000 L27bP (antibody, IgG1, name in Kabat numbering, V domains shown)
VH: B1 VH
VL: B1 VL with L29P, F39H
notes: one-arm IgG1
B34: CE115HA000/GLS3000 L27bS (antibody, IgG1, name in Kabat numbering, V domains shown)
VH: B1 VH
VL: B1 VL with L29S, F39H
notes: one-arm IgG1
B35: CE115HA000/GLS3000 L27bV (antibody, IgG1, name in Kabat numbering, V domains shown)
VH: B1 VH
VL: B1 VL with L29V, F39H
notes: one-arm IgG1
B36: CE115HA000/GLS3000 L27bW (antibody, IgG1, name in Kabat numbering, V domains shown)
VH: B1 VH
VL: B1 VL with L29W, F39H
notes: one-arm IgG1
B37: CE115HA000/GLS3000 L27bY (antibody, IgG1, name in Kabat numbering, V domains shown)
VH: B1 VH
VL: B1 VL with L29Y, F39H
notes: one-arm IgG1
B38: CE115HA000/GLS3000 L33A (antibody, IgG1, name in Kabat numbering, V domains shown)
VH: B1 VH
VL: B1 VL with L38A, F39H
notes: one-arm IgG1
B39: CE115HA000/GLS3000 L33D (antibody, IgG1, name in Kabat numbering, V domains shown)
VH: B1 VH
VL: B1 VL with L38D, F39H
notes: one-arm IgG1
B40: CE115HA000/GLS3000 L33E (antibody, IgG1, name in Kabat numbering, V domains shown)
VH: B1 VH
VL: B1 VL with L38E, F39H
notes: one-arm IgG1
B41: CE115HA000/GLS3000 L33F (antibody, IgG1, name in Kabat numbering, V domains shown)
VH: B1 VH
VL: B1 VL with L38F, F39H
notes: one-arm IgG1
B42: CE115HA000/GLS3000 L33I (antibody, IgG1, name in Kabat numbering, V domains shown)
VH: B1 VH
VL: B1 VL with L38I, F39H
notes: one-arm IgG1
B43: CE115HA000/GLS3000 L33M (antibody, IgG1, name in Kabat numbering, V domains shown)
VH: B1 VH
VL: B1 VL with L38M, F39H
notes: one-arm IgG1
B44: CE115HA000/GLS3000 L33P (antibody, IgG1, name in Kabat numbering, V domains shown)
VH: B1 VH
VL: B1 VL with L38P, F39H
notes: one-arm IgG1
B45: CE115HA000/GLS3000 L33V (antibody, IgG1, name in Kabat numbering, V domains shown)
VH: B1 VH
VL: B1 VL with L38V, F39H
notes: one-arm IgG1
B46: CE115HA000/GLS3000 N28A (antibody, IgG1, name in Kabat numbering, V domains shown)
VH: B1 VH
VL: B1 VL with N33A, F39H
notes: one-arm IgG1
B47: CE115HA000/GLS3000 N28E (antibody, IgG1, name in Kabat numbering, V domains shown)
VH: B1 VH
VL: B1 VL with N33E, F39H
notes: one-arm IgG1

target: T1, CD3 epsilon homodimer protein (UniProt P07766 23-126); test: SPR, antibody over immobilised CD3e homodimer;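 also: SPR at 25 °C with CD3 epsilon homodimer amine-coupled to a CM4 sensor chip and antibody flowed over as analyte in HBS-EP+ running buffer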
T1 construct: also called CD3 (CD3 epsilon)
T1 sequence (P07766 23-126): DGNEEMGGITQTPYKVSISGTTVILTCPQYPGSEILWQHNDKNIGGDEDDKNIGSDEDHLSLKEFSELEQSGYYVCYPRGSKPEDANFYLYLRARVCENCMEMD

Q: B1 was tested. Which “KD ratio to GLS3000” value did it give?
A: 3.5

Q: For B2, which “KD ratio to GLS3000” value is on record?
A: 1.08

Q: With B3 as the binder, how does the “KD ratio to GLS3000” value read?
A: 0.89

Q: How did the “KD ratio to GLS3000” value turn out when B4 was run?
A: 4.1

Q: How did the “KD ratio to GLS3000” value turn out when B5 was run?
A: 1.03

Q: B6 was tested. Which “KD ratio to GLS3000” value did it give?
A: 3.16

Q: B7 was tested. Which “KD ratio to GLS3000” value did it give?
A: 2.84

Q: Which “KD ratio to GLS3000” value does the source give for B8 here?
A: 1.22

Q: For B9, which “KD ratio to GLS3000” value is on record?
A: 4.6

Q: B10 was tested. Which “KD ratio to GLS3000” value did it give?
A: 1.24

Q: How did the “KD ratio to GLS3000” value turn out when B11 was run?
A: 1.1

Q: B12 was tested. Which “KD ratio to GLS3000” value did it give?
A: 1.04

Q: Which “KD ratio to GLS3000” value does the source give for B13 here?
A: 8.45

Q: With B14 as the binder, how does the “KD ratio to GLS3000” value read?
A: 2.44

Q: With B15 as the binder, how does the “KD ratio to GLS3000” value read?
A: 59.5

Q: B16 was tested. Which “KD ratio to GLS3000” value did it give?
A: 114

Q: Which “KD ratio to GLS3000” value does the source give for B17 here?
A: 57.2

Q: For B18, which “KD ratio to GLS3000” value is on record?
A: 42.4

Q: How did the “KD ratio to GLS3000” value turn out when B19 was run?
A: 36.4

Q: For B20, which “KD ratio to GLS3000” value is on record?
A: 27.7

Q: How did the “KD ratio to GLS3000” value turn out when B21 was run?
A: 8.13

Q: How did the “KD ratio to GLS3000” value turn out when B22 was run?
A: 1.83

Q: How did the “KD ratio to GLS3000” value turn out when B23 was run?
A: 45.3

Q: Which “KD ratio to GLS3000” value does the source give for B24 here?
A: 25.1

Q: With B25 as the binder, how does the “KD ratio to GLS3000” value read?
A: 195

Q: B26 was tested. Which “KD ratio to GLS3000” value did it give?
A: 0.85

Q: Which “KD ratio to GLS3000” value does the source give for B27 here?
A: 0.95

Q: B28 was tested. Which “KD ratio to GLS3000” value did it give?
A: 25.1

Q: For B29, which “KD ratio to GLS3000” value is on record?
A: 28.8

Q: Which “KD ratio to GLS3000” value does the source give for B30 here?
A: 2.67

Q: How did the “KD ratio to GLS3000” value turn out when B31 was run?
A: 1.17

Q: How did the “KD ratio to GLS3000” value turn out when B32 was run?
A: 1.31

Q: How did the “KD ratio to GLS3000” value turn out when B33 was run?
A: 0.96

Q: For B34, which “KD ratio to GLS3000” value is on record?
A: 0.9

Q: For B35, which “KD ratio to GLS3000” value is on record?
A: 1.11

Q: B36 was tested. Which “KD ratio to GLS3000” value did it give?
A: 23.6

Q: Which “KD ratio to GLS3000” value does the source give for B37 here?
A: 22.2

Q: For B38, which “KD ratio to GLS3000” value is on record?
A: 0.82

Q: B39 was tested. Which “KD ratio to GLS3000” value did it give?
A: 37.5

Q: How did the “KD ratio to GLS3000” value turn out when B40 was run?
A: 0.83

Q: B41 was tested. Which “KD ratio to GLS3000” value did it give?
A: 0.65

Q: B42 was tested. Which “KD ratio to GLS3000” value did it give?
A: 0.86

Q: B43 was tested. Which “KD ratio to GLS3000” value did it give?
A: 0.9

Q: With B44 as the binder, how does the “KD ratio to GLS3000” value read?
A: 32.9

Q: How did the “KD ratio to GLS3000” value turn out when B45 was run?
A: 1.26

Q: Which “KD ratio to GLS3000” value does the source give for B46 here?
A: 4.18

Q: Which “KD ratio to GLS3000” value does the source give for B47 here?
A: 5.47
